This series concerns the molecule itself. As to the kind of experiment: dynamic light scattering + native gel or EMSA; fragment at 0.23 mg/ml in 10 mM phosphate buffer, pH 7.4, 25 °C, immediately after dissolving the lyophilisate; native PAGE 5–12% acrylamide.

B1: hTTR(59–127) (domain or fragment)
chain: not shown
notes: transthyretin, human, C-terminal proteolytic fragment Thr59-Glu127 (7757.4 Da) from cleavage at the Leu58-Thr59 bond; also called Thr59-Glu127 peptide; source: cleavage of plasma-purified hTTR by B. subtilis subtilisin, purified by semi-preparative RP-HPLC, lyophilized
As for B1, the binding result is “binds”.
